# Assay results reported in US20210253666A1 (TCR2 THERAPEUTICS, published 2021).
# Substitutions are numbered along the chain they refer to.
# T1: hMUC16 peptide biotinylated either at C- or N-terminus (bio-hMUC16) (human, biotin at C- or N-terminus)
# T1 construct: Captured on streptavidin-coated plates for panning and ELISA screening; also called human MUC16 peptide; MUC16 immunization peptide
# T1 peptide: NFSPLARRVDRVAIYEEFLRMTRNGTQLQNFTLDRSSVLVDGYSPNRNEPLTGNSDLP
# B1: Single domain anti-MUC16 R3MU63 (VHH)
# VHH: QVQLQESGGGLVQAGDSLRLSCAASGRTVSSLFMGWFRRAPGKERELVAAISRYSLYTYYADSVKGRFTISADNAKNAVYLQMNSLKPEDTAVYYCASKLEYTSNDYDSWGQGTQVTVSS
# notes: Tested as soluble nanobody in crude periplasmic extract; not shown: C-terminal HA tag and His6 tag of the pMECS GG vector
# B2: single domain anti-MUC16 binder R3MU4 (VHH)
# VHH: B1 VHH with D16G, R39Q
# notes: as for B1
# B3: Single domain anti-MUC16 R3MU147 (VHH)
# VHH: B1 VHH with D16E
# notes: as for B1
# B4: Single domain anti-MUC16 R3MU29 (VHH)
# VHH: B1 VHH with T28A
# notes: as for B1
# B5: Single domain anti-MUC16 R3MU150 (VHH)
# VHH: B1 VHH with A14P, D16G
# notes: as for B1
# B6: Single domain anti-MUC16 R3MU119 (VHH)
# VHH: QVQLQESGGGLVQPGDSMRLSCAAEGDSLDGYVVGWFRQAPGKERQGVSSISGDGSMRYVADSVKGRFTISRDNAKNTVYLQMIDLKPEDTGVYYCAADPPTWDYWGQGTQVTVSS
# notes: as for B1
# Molecular target: T1, hMUC16 peptide biotinylated either at …
# Assay: ELISA, crude periplasmic extracts on biotinylated hMUC16 peptide captured on streptavidin-coated wells
# Method: The Core 93GG library was panned on hMUC16 peptide […] (SEQ ID NO:92) biotinylated either at C- or N-terminus (bio-hMUC16) for 4 rounds. The bio-hMUC16 peptide was allowed to interact with streptavidin coated plates after which phages from the library were added to the plate. The enrichment for antigen-specific phages was assessed after each round of panning by comparing the number of phagemid particles eluted from antigen-coated wells with the number of phagemid particles eluted from negative control wells (coated with streptavidin and blocked but containing no peptide). […] No enrichment was observed after the 1st, 3rd and 4th round. In total, 380 colonies (190 from round 3, 190 from round 4) were randomly selected and analyzed by ELISA for the presence of antigen-specific nanobodies in their periplasmic extracts (ELISA using crude periplasmic extracts including soluble nanobodies). The peptides used for ELISA screening were the same as the ones used for panning, using blocked streptavidin-coated wells without peptide as negative control. Out of these 380 colonies, 34 colonies scored positive in this assay. Based on sequence data of the positive colonies, 6 different full length nanobodies were distinguished, belonging to 2 different CDR3 groups (B-cell lineages) (see Excel file). […] Nanobodies belonging to the same CDR3 group recognize the same epitope but their other characteristics (e.g. affinity, potency, stability, expression yield, etc.) can be different. Clones from these pannings bear the following code in their name: MU.
row,binding result,Binder
1,binds,B1
2,binds,B2
3,binds,B3
4,binds,B4
5,binds,B5
6,binds,B6
